The values below come from patent publication US20260258115A1 (MAPP BIOPHARMACEUTICAL, published 2026).

For assay [1], the target named is RSV prefusion F (preF), subtype B (respiratory syncytial virus, subtype B). Nature of the assay: BLI, IgG. On the technique in general: Biolayer interferometry detects binding as a change in optical thickness at a sensor tip.
The target in assay [2] is RSV prefusion F (preF), subtype A (respiratory syncytial virus, subtype A, UniProt P03420 26-513). As to the kind of experiment: BLI, IgG.
Assay [3] has as its target T1, RSV postfusion F (postF), subtype A (respiratory syncytial virus, subtype A, UniProt P03420 26-513).
T1 construct: also called F ΔFP; Postfusion subtype A
As to the kind of experiment: BLI, IgG.

For assay [4], the target named is RSV fusion glycoprotein (RSV F) on RSV-A2 virus (respiratory syncytial virus, UniProt P03420 26-574). As to the kind of experiment: cell-based or functional assay.

B1: ADI-21034 (antibody, V domains shown)
VH: QVQLQQSGAEVKKPGESLTISCKGSGYSFGNYWISWVRQMPGKGLEWMGRIDPSDSYVNYSPSFQGNVTMSVDKSSSTAYLQWSSLKASDTAMYYCARLAGYSTLWGQGTLVTVSS
VL: EIVLTQSPGTLSLSPGERATLSCRASQSFGSIYLAWYQQKPGQAPRLLIYGTSSRATGIPDRFSGSGSGTDFTLTIRRLEPEDFAVYYCLYYGSSPGATFGPGTKVDIK
As usually defined, the Kd is the concentration at which binding is half-saturated. A low value points to higher affinity. For the molecule B1, the results for the Kd in assay [1] and in assay [2] were 0.174 nM and 0.145 nM, respectively. For the same molecule, in assay [3], the binding result is reported as “no binding”.

B2: ADI-21051 (antibody, V domains shown)
VH: QVQLVESGPGLVRPSQTLSLTCNVSGDFISRGTYYWSWIRQSAGKGLEWIGRIYTSGITDYSPSLKSRVTISVDTSKNQFFLKLASVTAADTAVYYCARGRGYYDSPWGQGTLVTVSS
VL: ETTLTQSPATLSLSPGERATLSCRASESVSTFLGWYQQKPGQAPRLLIYDASNRASGVPARFSGSGSGTDFTLTISSLEPEDFAVYYCQLRNKWLTFGPGTKVDIK
Consider B2, for which the results for the Kd in assay [1] and in assay [2] were 0.335 nM and 0.292 nM, respectively. Also, the binding result in assay [3] was “no binding”.

B3: ADI-21050 (antibody, V domains shown)
VH: QVQLVQSGAEVKKPGASVKVSCTASGYTFANNGISWVRQAPGQGLEWMGWISAYNGNTKYAQTVQGRVTLTTDTSTSTAYMELRSLTSDDTAVYYCAREMGVDAAATFDYWGQGTLVTVSS
VL: EIVMTQSPLFLSVTLGQPASISCRSSQSLVYSDTNTYLTWFQQRPGQSPRRLIYKVSNRDSGVPDRFSGSGSGTYFTLKISRVEAEDIGVYYCMQAIHWPRTFGQGTKLEIK
On to B3, for which the Kd in assay [1] stood at 0.323 nM; in assay [2] it was 0.362 nM. Further, the binding result in assay [3] is given as “no binding”.

B4: ADI-41351 (antibody, V domains shown)
VH: QVQLVQSGGGLVQPGGSLRLSCSASGFTFSSKSMHWVRQAPGKGLEYVSAIRSDGVSTYYGDSVKGRFTVSRDNAKNTVYLRMSSLRREDTAVYYCVKGPYGDFQYNWFDTWGQGTLVTVSS
VL: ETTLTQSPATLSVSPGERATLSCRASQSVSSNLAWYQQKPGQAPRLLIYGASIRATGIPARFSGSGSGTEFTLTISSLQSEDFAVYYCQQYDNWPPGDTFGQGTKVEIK
For the molecule B4, the “Neutralization IC50 (RSV subtype A)” value in assay [4] was 0.149 µg/mL.

B5: ADI-21023 (antibody, V domains shown)
VH: EVQLVESGGGLVKPGGSLRLSCAASGFRFSSYGMHWVRQAPGRGLEWVSSITAGSSYMDYADSVKGRFSISRDNAKTSLYLQMNSLRAEDTAIYYCARENYDTGRGLNWFDPWGQGTLVTVSS
VL: QSVVTQPPSVSGAPGQRVTISCTGSSSNIGAGYDVHWYRQLPGTAPEVLIYGNNNRPSGVPDRFSGSKTGTSASLAITGLLAEDGADYYCQSYDRSQLWVFGGGTQLTVP
Consider B5, for which the Kd in assay [1] worked out at 0.316 nM; in assay [2], 0.264 nM. Also, the binding result in assay [3] was “no binding”.

B6: ADI-21045 (antibody, V domains shown)
VH: EVQLVESGGGLVKPGGSLRLSCLASGFKFRSYSMNWVRQAPGTGLVWVASISASSSFIFYADSLKGRFTISRDNDKNSLYLQMNSLTVEDTAVYYCVRDMSGISSGGKTFDYWGQGTLVTVSS
VL: QSVLTQPPSVSGAPGQRVTISCTGSSSNLGAGYDVQWYQQLPGTAPKLLIYGNNNRPSGVPDRFSGSKSGTSASLAITGLRAEDEADYYCQSYDTSPVFGGGTKLTVL
Consider B6, for which the Kd in assay [1] amounted to 0.596 nM; in assay [2], 0.456 nM. Besides, in assay [3], the binding result is given as “no binding”.

B7: ADI-21052 (antibody, V domains shown)
VH: QVQLVQSGAEVKKPGASVKVSCKASGYTFTSYGISWVRQAPGQGLEWMGWISAYNGNTNYAQNLQGRVTMTTDTSTSTAYMELRSLRSDDTAMYYCARDAFSRVGYWYFDLWGRGTLVTVSS
VL: SYELTQPPSVSVAPGQAARITCGGNNIGSKTVHWYQQKPSQAPVLVVYDDSDRPSGIPERFSGSNSGNTATLTISRVEAGDEADYYCQVWDSSGDHPVFGGGTKLTVL
notes: also called Ab 300
B7: the figures for the Kd in assay [1], in assay [2] and in assay [3] were 0.11 nM, 0.126 nM and 18.4 nM, respectively.

B8: ADI-21038 (antibody, V domains shown)
VH: QVQLVQSGAEVKKPGESLKISCQGFGFSFTSYWIGWVRQTPGKGLEWMGTIYPGDSETRKSPSIQGQVTFSADRSISTAYLQWSGLTASDTAVYYCARLKGGWGTTMAGIRDYFYYGLDVWGQGTTVTVSS
VL: EIVLTQSPGTLSLSPGERATLSCRASQSVSSSYLAWYQQKPGQAPRLLIYGASSRATGIPDRFTGSGSGTDFTLTISRLEPEDFAVYYCQQYATSLGGFTFGPGTKVDIK
As for B8, the results for the Kd in assay [1], in assay [2] and in assay [3] were 16 nM, 2.93 nM and 1.45 nM, respectively.

B9: ADI-21021 (antibody, V domains shown)
VH: QVQLQQWGAGLLKPSETLSLTCAVHGGSFSGFYWSWIRQSPGKGLEWIAEINDSGNTNHNPSLKSRVTISIDTSKNQFSLNVSSVTAADTAVYYCAKNGGGHHYVGTLRFRSRAFDIWGQGTMVTVSS
VL: EIVMTQSPSTLSASVGDRVTITCRASQSIGNRLAWYQQKPGKAPKLLISLASGLETGVPSRFSGSGSGTEFTLTITSLQPDDFATYYCQQYSSYGTFGQGTKLEIK
notes: also called Ab 270
For B9, the Kd in assay [1] is 4.5 nM; in assay [2], 2.55 nM. For the same molecule, in assay [3], the binding result is “no binding”.

B10: ADI-21030 (antibody, V domains shown)
VH: EVQLVESGGGLVKPGGSLRLSCAASGFKFSTYYMSWIRQAPGKGLEWVSNISGGSSYSNHADSVKGRFTISRDNAKNSLYLEMNSLRAEDTAVYYCAREDLMGVSGLAYFEYWGQGILVTVSS
VL: QPVLTQPPSVSGAPGQRVTISCTGRSSNIGAGYDVNWYKQLPGAVPKVLIYGNTNRPSGVPDRFSGSKSGNSASLAITGLQAEDEADYYCQSYDRNLGYVFGTGTKLTVL
For the molecule B10, the Kd in assay [1] was found to be 0.301 nM; in assay [2] it was 0.257 nM. Besides, the binding result in assay [3] is “no binding”.

B11: ADI-21027 (antibody, V domains shown)
VH: QVQLQESGPGLVKPSGTLSLTCVVSGGSIRSHNYWTWVRQPPGKGLEWIGEIYHSGNTNYNPSLKSRVTLSIDKSKNVFSLRLNSVTAADTAVYYCVGGGPFAPYYFENWGQGTLVTVSS
VL: QSVLTQPPSVSGAPGQRVTISCTGSSSNIGAGYAVHWYHQLPGTAPKLLIYDNNNRPSGVPDRFSGSKSGSSASLAITGLQAEDEADYYCQSYDRSLSGYVFGTGTKLTVL
B11: the Kd in assay [1] came to 0.34 nM; in assay [2] it was 0.296 nM. The binding result in assay [3] is given as “no binding”.

B12: ADI-21025 (antibody, V domains shown)
VH: EVQLVESGGGLVRPGGSLRLSCEASGLKLSGYSMNWVRQAPGKGLEWVSSISASSSYIHYADSLKGRFTISRDNAKNSLYLQMNSLRAEDTAVYYCVASWLTPGWFDPWGQGTLVTVSS
VL: QPVLTQPPSVSGAPGQTVTISCTGSSSNIGAGYDVHWYQQLPGTAPKLLIYGNTNRPSGVPDRFSGSKSGTSASLAVTGLQAEDEGDYYCQSYDSSLSGSAFGGGTKLTVL
Turning to B12, the Kd in assay [1] was 0.295 nM; in assay [2] it was 0.242 nM. Further, the binding result in assay [3] is listed as “no binding”.

B13: ADI-21017 (antibody, V domains shown)
VH: QVQLVESGTEVKKPGASVKVSCKASGYTFTNYGITWVRQAPGQGLEWMGCISGYNGNTNYAQNLQGRVTMTTDTSTNTAYMELRSLISDDTAVYYCARDTGLTAAALLDYWGQGTLVTVSS
VL: DIVLTQSPLSLPVTLGQPASISCRSSQSLVYSDGNTYLSWFQQRPGQSPRRLIYKVSNRDSGVPDRFGGSGSGTYFTLKISRVEAEDVGIYYCMQAIHWPLTFGGGTKVEIK
In the case of B13, the Kd came out at 1.56 nM in assay [1] and 0.305 nM in assay [2]. For the same molecule, the binding result in assay [3] was “no binding”.

B14: ADI-21029 (antibody, V domains shown)
VH: QVQLVQSGAEVRKPGESLKISCKASGYSFTNYWIGWVRQMPGKGLEWMGIVYPADSHPVYSPSFQGQVTFSTDKSINTAYLQWSSLKASDTAMYFCARRDGGTDYLSDAFDIWGQGTMVTVSS
VL: DIVMTQSPSSLSASVGDRVTITCRTSQSIRRYLNWYQQKPGKAPKLLIYAASSLQSGVPSRFSGSGSGTDFTLTISSLQPEDFATYYCQQSYSTPNTFGQGTKVEIK
With B14, the Kd in assay [1] amounted to 8.38 nM; in assay [2] it was 3.77 nM. For the same molecule, the binding result in assay [3] is “no binding”.

B15: ADI-21044 (antibody, V domains shown)
VH: QVQLVQSGAELKKPGESLKISCKTSGYTFANYWIGWVRQMPGKGLEWMGIIYPGDSDTRYSPSFQGQVTFSADKSINSAYLQWHSLKASDSAIYYCARRFSPDYSDGAAPPTLSDAFDVWGQGTTVTVSS
VL: DIVMTQSPSSLSASVGDRVTITCRASQNINIYLNWYQQKPGKAPKLLIYAASTLQSGVPSRFSGSGSATDFTLTISSLQPEDFATYYCQQSYRTPNDFGRGTKVDIK
Turning to B15, the Kd came to 5.85 nM in assay [1] and 4.51 nM in assay [2]. In assay [3], the binding result was “no binding”.

B16: ADI-21063 (antibody, V domains shown)
VH: EVQLVESGGGLVQPGGSLRLSCSASGFTFRTYVMQWVRQAPGKGLEYVSAISSDGGSTDYADSVKGRFTVSRDNSKNTLYLQMSSLRAEDTAVYYCVKRGEGGNDYLYYYMDVWGKGTTVTVSS
VL: DIQVTQSPSSLSASVGDRVTITCRASQSITNYLNWYQQKPGKAPKVLIYAASSLQSGVPSRFSGSGSGTDFTLTISSLQPEDFATYYCQQSYLRPPTFGGGTKVEIK
On to B16, for which the Kd in assay [1] is 0.777 nM; in assay [2], 0.834 nM. The binding result in assay [3] is recorded as “no binding”.

B17: ADI-21059 (antibody, V domains shown)
VH: QVQLVQSGAEVKRPGDSLKISCKGSGYSFTTSWIGWVRQVPGKGLEWMGIIYPGDSNTVYGPSLQGQVTISADKSTNTAYLQWSSLKASDTAMYYCARRDGGTDYLSDAFDIWGQGTFVTVSS
VL: DIQMTQSPSSLSASVGDRVTITCRTSQNIVIYLNWYQQKPGKAPKLLIFAASSLPSGVPSRFSGSGSGTDFTLTISSLQPEDVATYYCQQSYNTPGTFGQGTKVDIK
As to B17, the Kd in assay [1] was 9.43 nM; in assay [2] it was 3.05 nM. For the same molecule, in assay [3], the binding result is “no binding”.

B18: ADI-21033 (antibody, V domains shown)
VH: QVQLVQSGAEVRKPGDSLKISCKFSENIFTTYYWTGWVRQMPGRGLEWMGIIFPGDSDTRYSPSFQGHVTISVDKSIATAFLQWSSLKASDSAMYYCARAKYEGSFDMWGQGTMVTVSS
VL: DIQVTQSPSSLSASVGDRVSITCQASQDIRNRLNWYQQKPGKAPKLLIYDASILETGVPSRFSGSGSGTDFTFSISSLQPEDFATYYCQQYDSFSLFTFGPGTKVEIK
For the molecule B18, the Kd was determined as 1.4 nM in assay [1] and 0.193 nM in assay [2]. Further, the binding result in assay [3] is “no binding”.
